Data set [1] addresses T1, MilA (Streptomyces rimofaciens, UniProt B4Y380).
T1 construct: full-length, C-terminal 6xHis tag (LEHHHHHH) kept, pET28a, expressed in E. coli BL21(DE3); homodimer, active site from both subunits
T1 sequence (B4Y380 1-334): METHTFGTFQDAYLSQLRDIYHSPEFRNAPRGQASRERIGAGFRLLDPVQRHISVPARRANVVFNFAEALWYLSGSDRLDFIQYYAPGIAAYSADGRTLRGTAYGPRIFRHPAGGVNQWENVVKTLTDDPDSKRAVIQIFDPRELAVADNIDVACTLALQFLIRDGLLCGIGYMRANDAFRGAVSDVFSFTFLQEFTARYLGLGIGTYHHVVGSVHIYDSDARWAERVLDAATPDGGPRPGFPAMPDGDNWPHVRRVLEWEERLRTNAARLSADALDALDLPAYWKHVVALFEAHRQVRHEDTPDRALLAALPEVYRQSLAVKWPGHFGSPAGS
Description: X-ray crystal structure, […] Å. Format: binding. The conditions noted are these: crystals grown with hmCMP, pH 6.5, 14 °C; active site.

The target in data set [2] is T2, MilA (Streptomyces rimofaciens, UniProt B4Y380, A176S).
T2 construct: full-length, C-terminal 6xHis tag (LEHHHHHH) kept, pET28a, expressed in E. coli BL21(DE3); homodimer, active site from both subunits
As to the kind of experiment: HPLC/LC-MS of CMP and dCMP competition reaction. The conditions noted are these: 1 mM CMP and dCMP together, 2 mM tetrahydrofolate, 15 mM paraformaldehyde, pH 7.5, 37 °C. Format: biochemical.

In data set [3] the target is T3, MilA (Streptomyces rimofaciens, UniProt B4Y380, K133R/A176S).
T3 construct: full-length, C-terminal 6xHis tag (LEHHHHHH) kept, pET28a, expressed in E. coli BL21(DE3); homodimer, active site from both subunits
As to the kind of experiment: HPLC/LC-MS of CMP and dCMP competition reaction. The conditions noted are these: 1 mM CMP and dCMP together, 2 mM tetrahydrofolate, 15 mM paraformaldehyde, pH 7.5, 37 °C. Format: biochemical.

Substrate in data set [4]: Nc1ccn([C@@H]2O[C@H](COP(=O)(O)O)[C@@H](O)[C@H]2O)c(=O)n1
Description: HPLC of hmCMP formation, Michaelis-Menten fit. It counts as biochemical, Streptomyces rimofaciens. The conditions noted are these: CH2THF co-substrate saturating (from 2 mM tetrahydrofolate), 50 mM Tris-HCl pH 7.5, 37 °C. From the text:
HPLC of hmCMP formation, Michaelis-Menten fit on MilA

Substrate in data set [5]: Nc1ccn([C@H]2C[C@H](O)[C@@H](COP(=O)(O)O)O2)c(=O)n1
Description: HPLC of hmdCMP formation, Michaelis-Menten fit. Format: biochemical, Streptomyces rimofaciens. The conditions noted are these: CH2THF co-substrate saturating (from 2 mM tetrahydrofolate), 50 mM Tris-HCl pH 7.5, 37 °C. From the text: HPLC of […] formation, Michaelis-Menten fit on MilA

Data set [6] concerns the molecule itself. As to the kind of experiment: crystal structure; hanging-drop vapor diffusion at 14 °C; apo MilA (PEG 3350, lithium sulfate, Tris-HCl pH 8.5) and complexes with CMP, dCMP or hmCMP (sodium cacodylate pH 6.5, sodium acetate); space group P3(2)21, two molecules in the asymmetric unit related by a non-crystallographic twofold rotation.
[7] abbreviates: crystal structure of complex at 1.65 Å.
The mark [8] stands for this setting: crystal structure of complex at 2.10 Å.

The record followed here is paper PMC5175136, “Structural basis of the substrate preference towards CMP for a thymidylate synthase MilA involved in mildiomycin biosynthesis” (Scientific Reports, 2016).

T2 sequence (B4Y380 entry or part of it A176S): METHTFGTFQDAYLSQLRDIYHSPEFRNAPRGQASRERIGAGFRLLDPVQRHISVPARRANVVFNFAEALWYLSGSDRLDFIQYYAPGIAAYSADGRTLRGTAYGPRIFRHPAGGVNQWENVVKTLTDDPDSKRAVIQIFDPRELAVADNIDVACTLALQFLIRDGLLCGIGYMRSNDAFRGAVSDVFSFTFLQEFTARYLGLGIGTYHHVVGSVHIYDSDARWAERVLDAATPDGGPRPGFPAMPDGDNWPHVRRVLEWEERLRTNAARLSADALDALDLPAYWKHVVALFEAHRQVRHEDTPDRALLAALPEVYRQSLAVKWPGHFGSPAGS
T3 sequence (B4Y380 entry or part of it K133R/A176S): as the sequence (B4Y380 entry or part of it A176S) above, with K133R counted along it

As for `Nc1nc(=O)n([C@@H]2O[C@H](COP(=O)(O)O)[C@@H](O)[C@H]2O)cc1CO` [hmCMP], at MilA [1], the “X-ray crystal structure, 1.80 Å” value is given as “MilA‒hmCMP complexes have been deposited in the Protein Data Bank”.

Consider `Nc1ccn([C@@H]2O[C@H](COP(=O)(O)O)[C@@H](O)[C@H]2O)c(=O)n1` [CMP], for which the “HPLC/LC-MS of CMP and dCMP competition reaction” value at MilA [2] was “MilA-A176S could still catalyze the hydroxymethylation reaction of CMP”.

Regarding `Nc1ccn([C@H]2C[C@H](O)[C@@H](COP(=O)(O)O)O2)c(=O)n1` [dCMP], the “HPLC/LC-MS of CMP and dCMP competition reaction” value at MilA [2] was “significantly enhanced its catalytic efficiency toward dCMP”; at MilA [3], “double mutant MilA A176S/K133R, but its efficiency to dCMP is slightly affected”.

B1: MilA, CMP hydroxymethylase from Streptomyces rimofaciens ZJU5119 (wild type, C-terminally His-tagged) (enzyme, UniProt B4Y380 1-334, looked up)
chain: T1 sequence (B4Y380 1-334)
notes: MilA, CMP hydroxymethylase of the mildiomycin biosynthetic gene cluster, Streptomyces rimofaciens ZJU5119; full-length, cloned into pET28a; They are disordered in the crystal; also called WT MilA; MilA-WT; source: E. coli BL21(DE3), purified (Ni-NTA, Superdex 200 gel filtration); not shown: His6, C-terminal, kept
Broadly, the kcat is the maximal rate divided by the concentration of active sites. One may read the kcat/Km as the turnover number divided by the Michaelis constant. The stoichiometry N is the number of molecules, sites or subunits per partner or assembly. For B1, the Km is reported as 0.0719 (0.0076) mM in data set [4] and 0.245 (0.0589) mM in data set [5]. Further, the kcat was 0.047 s⁻¹ in data set [4] (setting [7]) and 0.032 s⁻¹ in data set [5] (setting [8]). Also, the values for the specificity constant (kcat/Km) in data set [4] (setting [7]) and in data set [5] (setting [8]) were 653 M⁻¹ s⁻¹ and 131 M⁻¹ s⁻¹, respectively. Further, the “stoichiometry N” value in data set [6] was 2.
